These results are taken from IntAct's records for PubMed 16418270.

To fix the notation:
B1: Ribonuclease P protein component 2 (Pyrococcus furiosus), Q8U151 (parent)
chain: MSERPKTLPPTLRDKKRYIAFKVISENQFNKDEIKEAIWNACLRTLGELGTAKAKPWLIKFDETTQTGIIRCDRNHVYDVIFSLTLVSDINGNKAIIKVLGVSGTIKRLKRKFLSQFGWR
partner: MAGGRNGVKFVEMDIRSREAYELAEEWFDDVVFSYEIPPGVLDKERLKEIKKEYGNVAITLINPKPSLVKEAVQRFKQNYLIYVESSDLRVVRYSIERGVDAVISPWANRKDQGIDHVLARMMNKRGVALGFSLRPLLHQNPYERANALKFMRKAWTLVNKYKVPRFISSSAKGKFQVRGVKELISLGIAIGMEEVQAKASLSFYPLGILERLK

The experiment covers variants of B1. The following applies: with rnp3_pyrfu rnp3, Q8TZS0.
As for C72S, the “effect of a mutation on the interaction” value was “decreasing interaction”.
